Test [1] addresses T1, endogenous IQGAP1 (human, UniProt P46940 2-1657).
T1 construct: also called cellular IQGAP1
Kind of test: co-IP with anti-IQGAP1 from LNCaP cells transfected with HA-FOXO3, Western blot. A general note: Immunoblotting shows a protein as a band on a membrane.

Test [2] concerns the target T1, endogenous IQGAP1. Kind of test: co-IP with anti-Flag from transfected LNCaP cells, Western blot.
Test [3] concerns the target T1, endogenous IQGAP1. Kind of test: GST pull-down from DU145 whole cell lysate, Western blot.
In test [4] the target is T1, endogenous IQGAP1. The test is described as follows: co-IP with anti-IQGAP1 from LNCaP cells transfected with HA-FOXO4, Western blot.
The target of test [5] is T1, endogenous IQGAP1. Kind of test: co-IP with anti-Flag from LNCaP cells expressing SFB-tagged peptides, Western blot.

Ends that are not written are not given here.

14 molecules from US20190194276A1 (MAYO FOUNDATION FOR MEDICAL EDUCATION AND RESEARCH, published 2019) can be followed below.

T1 sequence (P46940 2-1657 limits assumed): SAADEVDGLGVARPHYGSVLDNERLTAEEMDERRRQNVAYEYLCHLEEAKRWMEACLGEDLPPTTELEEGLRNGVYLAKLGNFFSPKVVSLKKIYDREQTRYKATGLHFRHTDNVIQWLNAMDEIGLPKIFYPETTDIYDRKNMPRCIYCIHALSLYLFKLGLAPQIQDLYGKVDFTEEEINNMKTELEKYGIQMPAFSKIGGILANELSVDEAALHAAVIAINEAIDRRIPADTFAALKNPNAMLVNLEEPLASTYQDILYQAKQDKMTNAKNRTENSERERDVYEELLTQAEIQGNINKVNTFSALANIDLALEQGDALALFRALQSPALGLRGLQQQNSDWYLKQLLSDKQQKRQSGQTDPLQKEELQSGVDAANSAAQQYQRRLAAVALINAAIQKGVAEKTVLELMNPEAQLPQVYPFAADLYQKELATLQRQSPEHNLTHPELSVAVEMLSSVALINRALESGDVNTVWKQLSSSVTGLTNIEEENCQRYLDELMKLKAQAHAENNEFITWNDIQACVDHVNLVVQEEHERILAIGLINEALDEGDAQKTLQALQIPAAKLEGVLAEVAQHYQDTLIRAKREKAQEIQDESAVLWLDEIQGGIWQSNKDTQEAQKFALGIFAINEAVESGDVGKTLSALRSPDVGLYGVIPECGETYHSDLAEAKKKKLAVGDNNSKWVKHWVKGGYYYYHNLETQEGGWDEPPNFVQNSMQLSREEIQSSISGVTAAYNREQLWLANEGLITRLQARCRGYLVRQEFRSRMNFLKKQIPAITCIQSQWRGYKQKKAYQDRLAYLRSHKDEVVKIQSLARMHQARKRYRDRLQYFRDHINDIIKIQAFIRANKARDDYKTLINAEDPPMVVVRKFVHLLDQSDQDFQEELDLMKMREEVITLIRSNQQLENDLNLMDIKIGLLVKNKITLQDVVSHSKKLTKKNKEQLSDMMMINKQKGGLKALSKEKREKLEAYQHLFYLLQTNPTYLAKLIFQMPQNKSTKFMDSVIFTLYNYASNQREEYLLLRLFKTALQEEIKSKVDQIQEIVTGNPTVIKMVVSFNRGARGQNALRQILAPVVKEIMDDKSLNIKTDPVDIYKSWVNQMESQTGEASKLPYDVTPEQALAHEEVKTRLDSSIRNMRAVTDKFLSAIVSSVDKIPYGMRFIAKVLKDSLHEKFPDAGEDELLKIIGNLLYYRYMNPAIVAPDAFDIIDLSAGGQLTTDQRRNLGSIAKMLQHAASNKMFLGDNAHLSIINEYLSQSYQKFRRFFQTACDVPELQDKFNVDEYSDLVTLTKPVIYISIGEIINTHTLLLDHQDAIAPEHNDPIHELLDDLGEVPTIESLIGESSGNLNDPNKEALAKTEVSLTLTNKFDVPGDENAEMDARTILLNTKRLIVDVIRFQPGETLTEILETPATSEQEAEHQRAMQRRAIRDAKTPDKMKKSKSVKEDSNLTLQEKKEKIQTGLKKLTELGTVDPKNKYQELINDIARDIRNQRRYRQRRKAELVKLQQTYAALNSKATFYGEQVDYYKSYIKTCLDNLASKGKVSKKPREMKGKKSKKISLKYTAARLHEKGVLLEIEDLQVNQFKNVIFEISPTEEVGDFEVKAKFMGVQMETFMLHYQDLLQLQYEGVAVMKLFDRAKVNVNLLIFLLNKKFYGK

B1: HA-FOXO3 (other, UniProt O43524 1-673, looked up)
chain: MAEAPASPAPLSPLEVELDPEFEPQSRPRSCTWPLQRPELQASPAKPSGETAADSMIPEEEDDEDDEDGGGRAGSAMAIGGGGGSGTLGSGLLLEDSARVLAPGGQDPGSGPATAAGGLSGGTQALLQPQQPLPPPQPGAAGGSGQPRKCSSRRNAWGNLSYADLITRAIESSPDKRLTLSQIYEWMVRCVPYFKDKGDSNSSAGWKNSIRHNLSLHSRFMRVQNEGTGKSSWWIINPDGGKSGKAPRRRAVSMDNSNKYTKSRGRAAKKKAALQTAPESADDSPSQLSKWPGSPTSRSSDELDAWTDFRSRTNSNASTVSGRLSPIMASTELDEVQDDDAPLSPMLYSSSASLSPSVSKPCTVELPRLTDMAGTMNLNDGLTENLMDDLLDNITLPPSQPSPTGGLMQRSSSFPYTTKGSGLGSPTSSFNSTVFGPSSLNSLRQSPMQTIQENKPATFSSMSHYGNQTLQDLLTSDSLSHSDVMMTQSDPLMSQASTAVSAQNSRRNVMLRNDPMMSFAAQPNQGSLVNQNLLHHQHQTQGALGGSRALSNSVSNMGLSESSSLGSAKHQQQSPVSQSMQTLSDSLSGSSLYSTSANLPVMGHEKFPSDLDLDMFNGSLECDMESIIRSELMDADGLDFNFDSLISTQNVVGLNVGNFTGAKQASSQSWVPG
notes: Expressed in LNCaP cells; not shown: HA tag
For B1, in test [1], the binding result is listed as “binds”.

B2: Flag-FOXO1-A3 (T24A/S256A/S319A) (other, human, UniProt Q12778 1-655, looked up)
chain: MAEAPQVVEIDPDFEPLPRPRSCAWPLPRPEFSQSNSATSSPAPSGSAAANPDAAAGLPSASAAAVSADFMSNLSLLEESEDFPQAPGSVAAAVAAAAAAAATGGLCGDFQGPEAGCLHPAPPQPPPPGPLSQHPPVPPAAAGPLAGQPRKSSSSRRNAWGNLSYADLITKAIESSAEKRLTLSQIYEWMVKSVPYFKDKGDSNSSAGWKNSIRHNLSLHSKFIRVQNEGTGKSSWWMLNPEGGKSGKSPRRRAAAMDNNSKFAKSRSRAAKKKASLQSGQEGAGDSPGSQFSKWPASPGSHSNDDFDNWSTFRPRTSANASTISGRLSPIMTEQDDLGEGDVHSMVYPPSAAKMASTLPSLSEISNPENMENLLDNLNLLSSPTSLTVSTQSSPGTMMQQTPCYSFAPPNTSLNSPSPNYQKYTYGQSSMSPLPQMPIQTLQDNKSSYGGMSQYNCAPGLLKELLTSDSPPHNDIMTPVDPGVAQPNSRVLGQNVMMGPNSVMSTYGSQASHNKMMNPSSHTHPGHAQQTSAVNGRPLPHTVSTMPHTSGMNRLTQVKTPVQVPLPHPMQMSALGGYSSVSSCNGYGRMGLLHQEKLPSDLDGMFIERLDCDMESIIRNDLMDGDTLDFNFDNVLPNQSFPHSVKTTTHSWVSG
notes: Expressed in LNCaP cells; also called triple mutant; not shown: Flag tag
With B2, in test [2], the binding result was “no binding”.

B3: Flag-FOXO1-T24A (other, human, UniProt Q12778 1-655, looked up)
chain: MAEAPQVVEIDPDFEPLPRPRSCAWPLPRPEFSQSNSATSSPAPSGSAAANPDAAAGLPSASAAAVSADFMSNLSLLEESEDFPQAPGSVAAAVAAAAAAAATGGLCGDFQGPEAGCLHPAPPQPPPPGPLSQHPPVPPAAAGPLAGQPRKSSSSRRNAWGNLSYADLITKAIESSAEKRLTLSQIYEWMVKSVPYFKDKGDSNSSAGWKNSIRHNLSLHSKFIRVQNEGTGKSSWWMLNPEGGKSGKSPRRRAASMDNNSKFAKSRSRAAKKKASLQSGQEGAGDSPGSQFSKWPASPGSHSNDDFDNWSTFRPRTSSNASTISGRLSPIMTEQDDLGEGDVHSMVYPPSAAKMASTLPSLSEISNPENMENLLDNLNLLSSPTSLTVSTQSSPGTMMQQTPCYSFAPPNTSLNSPSPNYQKYTYGQSSMSPLPQMPIQTLQDNKSSYGGMSQYNCAPGLLKELLTSDSPPHNDIMTPVDPGVAQPNSRVLGQNVMMGPNSVMSTYGSQASHNKMMNPSSHTHPGHAQQTSAVNGRPLPHTVSTMPHTSGMNRLTQVKTPVQVPLPHPMQMSALGGYSSVSSCNGYGRMGLLHQEKLPSDLDGMFIERLDCDMESIIRNDLMDGDTLDFNFDNVLPNQSFPHSVKTTTHSWVSG
notes: Expressed in LNCaP cells; not shown: Flag tag
For the molecule B3, the binding result in test [2] is on record as “binds”.

B4: Flag-FOXO1-S256A (other, human, UniProt Q12778 1-655, looked up)
chain: MAEAPQVVEIDPDFEPLPRPRSCTWPLPRPEFSQSNSATSSPAPSGSAAANPDAAAGLPSASAAAVSADFMSNLSLLEESEDFPQAPGSVAAAVAAAAAAAATGGLCGDFQGPEAGCLHPAPPQPPPPGPLSQHPPVPPAAAGPLAGQPRKSSSSRRNAWGNLSYADLITKAIESSAEKRLTLSQIYEWMVKSVPYFKDKGDSNSSAGWKNSIRHNLSLHSKFIRVQNEGTGKSSWWMLNPEGGKSGKSPRRRAAAMDNNSKFAKSRSRAAKKKASLQSGQEGAGDSPGSQFSKWPASPGSHSNDDFDNWSTFRPRTSSNASTISGRLSPIMTEQDDLGEGDVHSMVYPPSAAKMASTLPSLSEISNPENMENLLDNLNLLSSPTSLTVSTQSSPGTMMQQTPCYSFAPPNTSLNSPSPNYQKYTYGQSSMSPLPQMPIQTLQDNKSSYGGMSQYNCAPGLLKELLTSDSPPHNDIMTPVDPGVAQPNSRVLGQNVMMGPNSVMSTYGSQASHNKMMNPSSHTHPGHAQQTSAVNGRPLPHTVSTMPHTSGMNRLTQVKTPVQVPLPHPMQMSALGGYSSVSSCNGYGRMGLLHQEKLPSDLDGMFIERLDCDMESIIRNDLMDGDTLDFNFDNVLPNQSFPHSVKTTTHSWVSG
notes: as for B3
Take B4: the binding result in test [2] is reported as “binds”.

B5: Flag-FOXO1-S319A (other, human, UniProt Q12778 1-655, looked up)
chain: MAEAPQVVEIDPDFEPLPRPRSCTWPLPRPEFSQSNSATSSPAPSGSAAANPDAAAGLPSASAAAVSADFMSNLSLLEESEDFPQAPGSVAAAVAAAAAAAATGGLCGDFQGPEAGCLHPAPPQPPPPGPLSQHPPVPPAAAGPLAGQPRKSSSSRRNAWGNLSYADLITKAIESSAEKRLTLSQIYEWMVKSVPYFKDKGDSNSSAGWKNSIRHNLSLHSKFIRVQNEGTGKSSWWMLNPEGGKSGKSPRRRAASMDNNSKFAKSRSRAAKKKASLQSGQEGAGDSPGSQFSKWPASPGSHSNDDFDNWSTFRPRTSANASTISGRLSPIMTEQDDLGEGDVHSMVYPPSAAKMASTLPSLSEISNPENMENLLDNLNLLSSPTSLTVSTQSSPGTMMQQTPCYSFAPPNTSLNSPSPNYQKYTYGQSSMSPLPQMPIQTLQDNKSSYGGMSQYNCAPGLLKELLTSDSPPHNDIMTPVDPGVAQPNSRVLGQNVMMGPNSVMSTYGSQASHNKMMNPSSHTHPGHAQQTSAVNGRPLPHTVSTMPHTSGMNRLTQVKTPVQVPLPHPMQMSALGGYSSVSSCNGYGRMGLLHQEKLPSDLDGMFIERLDCDMESIIRNDLMDGDTLDFNFDNVLPNQSFPHSVKTTTHSWVSG
notes: as for B3
In the case of B5, the binding result in test [2] is given as “no binding”.

B6: GST-FOXO1-5 (amino acids 488-655) (other, human, UniProt Q12778 488-655, looked up, not shown: a dimerising Fc or GST)
chain: NSRVLGQNVMMGPNSVMSTYGSQASHNKMMNPSSHTHPGHAQQTSAVNGRPLPHTVSTMPHTSGMNRLTQVKTPVQVPLPHPMQMSALGGYSSVSSCNGYGRMGLLHQEKLPSDLDGMFIERLDCDMESIIRNDLMDGDTLDFNFDNVLPNQSFPHSVKTTTHSWVSG
notes: range 488-655
Consider B6, for which the binding result in test [3] is on record as “no binding”.

B7: GST-FOXO1-2 (amino acids 149-267) (other, human, UniProt Q12778 149-267, looked up, not shown: a dimerising Fc or GST)
chain: PRKSSSSRRNAWGNLSYADLITKAIESSAEKRLTLSQIYEWMVKSVPYFKDKGDSNSSAGWKNSIRHNLSLHSKFIRVQNEGTGKSSWWMLNPEGGKSGKSPRRRAASMDNNSKFAKSR
notes: range 149-267
Take B7: in test [3], the binding result was “no binding”.

B8: GST-FOXO1-4 (amino acids 354-503) (other, human, UniProt Q12778 354-503, looked up, not shown: a dimerising Fc or GST)
chain: KMASTLPSLSEISNPENMENLLDNLNLLSSPTSLTVSTQSSPGTMMQQTPCYSFAPPNTSLNSPSPNYQKYTYGQSSMSPLPQMPIQTLQDNKSSYGGMSQYNCAPGLLKELLTSDSPPHNDIMTPVDPGVAQPNSRVLGQNVMMGPNSV
notes: range 354-503
Take B8: the binding result in test [3] is listed as “no binding”.

B9: GST-FOXO1-1 (amino acids 1-167) (other, human, UniProt Q12778 1-167, looked up, not shown: a dimerising Fc or GST)
chain: MAEAPQVVEIDPDFEPLPRPRSCTWPLPRPEFSQSNSATSSPAPSGSAAANPDAAAGLPSASAAAVSADFMSNLSLLEESEDFPQAPGSVAAAVAAAAAAAATGGLCGDFQGPEAGCLHPAPPQPPPPGPLSQHPPVPPAAAGPLAGQPRKSSSSRRNAWGNLSYAD
notes: range 1-167
Take B9: the binding result in test [3] is “no binding”.

B10: Flag-FOXO1-537 (other, human, UniProt Q12778 1-537, looked up)
chain: MAEAPQVVEIDPDFEPLPRPRSCTWPLPRPEFSQSNSATSSPAPSGSAAANPDAAAGLPSASAAAVSADFMSNLSLLEESEDFPQAPGSVAAAVAAAAAAAATGGLCGDFQGPEAGCLHPAPPQPPPPGPLSQHPPVPPAAAGPLAGQPRKSSSSRRNAWGNLSYADLITKAIESSAEKRLTLSQIYEWMVKSVPYFKDKGDSNSSAGWKNSIRRNLSLHSKFIRVQNEGTGKSSWWMLNPEGGKSGKSPRRRAASMDNNSKFAKSRSRAAKKKASLQSGQEGAGDSPGSQFSKWPASPGSHSNDDFDNWSTFRPRTSSNASTISGRLSPIMTEQDDLGEGDVHSMVYPPSAAKMASTLPSLSEISNPENMENLLDNLNLLSSPTSLTVSTQSSPGTMMQQTPCYSFAPPNTSLNSPSPNYQKYTYGQSSMSPLPQMPIQTLQDNKSSYGGMSQYNCAPGLLKELLTSDSPPHNDIMTPVDPGVAQPNSRVLGQNVMMGPNSVMSTYGSQASHNKMMNPSSHTHPGHAQQTSAVNGR
notes: Transcription-deficient mutant that can be phosphorylated by AKT; not shown: Flag tag
For the molecule B10, the binding result in test [2] was “binds”.

B11: HA-FOXO4 (other, UniProt P98177 1-505, looked up)
chain: MDPGNENSATEAAAIIDLDPDFEPQSRPRSCTWPLPRPEIANQPSEPPEVEPDLGEKVHTEGRSEPILLPSRLPEPAGGPQPGILGAVTGPRKGGSRRNAWGNQSYAELISQAIESAPEKRLTLAQIYEWMVRTVPYFKDKGDSNSSAGWKNSIRHNLSLHSKFIKVHNEATGKSSWWMLNPEGGKSGKAPRRRAASMDSSSKLLRGRSKAPKKKPSVLPAPPEGATPTSPVGHFAKWSGSPCSRNREEADMWTTFRPRSSSNASSVSTRLSPLRPESEVLAEEIPASVSSYAGGVPPTLNEGLELLDGLNLTSSHSLLSRSGLSGFSLQHPGVTGPLHTYSSSLFSPAEGPLSAGEGCFSSSQALEALLTSDTPPPPADVLMTQVDPILSQAPTLLLLGGLPSSSKLATGVGLCPKPLEAPGPSSLVPTLSMIAPPPVMASAPIPKALGTPVLTPPTEAASQDRMPQDLDLDMYMENLECDMDNIISDLMDEGEGLDFNFEPDP
notes: as for B1
As to B11, the binding result in test [4] is “binds”.

B12: SFB-FOXO1-IQBP S319 (peptide, not shown: small tags and cut ends)
peptide: NDDFDNWSTFRPRTSSNASTISGRLSPIMT
modifications: also: SFB tag, position not given here
notes: Expressed in LNCaP cells; also called wild-type counterpart
Consider B12, for which the binding result in test [5] is “binds”.

B13: SFB-FOXO1-IQBP S319E (peptide, not shown: small tags and cut ends)
peptide: NDDFDNWSTFRPRTSENASTISGRLSPIMT
modifications: also: SFB tag, position not given here
notes: Expressed in LNCaP cells; also called Flag-tagged FOXO1 IQBP(SE)
For B13, in test [5], the binding result is on record as “binds”.

B14: SFB-FOXO1-IQBP S319D (peptide, not shown: small tags and cut ends)
peptide: NDDFDNWSTFRPRTSDNASTISGRLSPIMT
modifications: also: SFB tag, position not given here
notes: Expressed in LNCaP cells
As for B14, the binding result in test [5] is “binds”.
